Blank lines part the entries; values can stand above or below the binder they belong to.
Key:
[1] = biological target: T1, extracellular domain of activin receptor type IIB (ActRIIBecd), biotinylated (Homo sapiens (Human), UniProt Q13705 27-117, amino-biotinylated with amine-PEG3-Biotin); experiment: BIAcore SPR, biotinylated ActRIIBecd on chip; SD ±14.11 nM
T1 construct: immobilised on a streptavidin-coated sensor chip; also called biotinylated ActRIIBecd; extracellular domain of ActRIIB
T1 sequence: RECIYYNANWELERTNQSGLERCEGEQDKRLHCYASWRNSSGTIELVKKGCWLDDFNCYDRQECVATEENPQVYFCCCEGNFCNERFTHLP
Procedure: (§1) Biosensor experiments. In one embodiment, experiments were performed on a BIAcore™ T100/T200 instrument (Pharmacia Biosensor AB) in the multichannel mode (serial flow path involving flow cells 1+2+3+4). Flow rate was 10 μl/min; temperature was 25° C.; and data were recorded at 2.5 points/s. All four segments of a sensor chip CMS were coated with streptavidin (Sigma) to a density of 2000 pg/mm² (2000 resonance units) by the aminocoupling procedure. ActRIIBecd (10 mg) and amine-PEG3-Biotin (10 mg, Pierce, Rockford, Ill.) were dissolved in 200 μl H₂O and 10 mg NaCNBH₃ was added to prepare biotinylated ActRIIBecd. The reaction mixture was heated at 70° C. for 24 h, after that a further 10 mg NaCNBH₃ was added and the reaction was heated at 70° C. for another 24 h. After cooling to room temperature, the mixture was desalted with the spin column (3,000 molecular weight cut off (MWCO)). […] Sensograms were recorded during flow of the analyte (the ActRIIBecd-associated polypeptides (i.e., domains) as previously described) first through flow cell 1 (control) then through flow cell 2 (biotinylated ActRIIBecd). […] The sensograms obtained at 1.11, 3.33, 10, 30, and 90 nM analyte were evaluated for equilibrium binding, association rate, and dissociation rate by using the programs supplied with the instrument (BIA evaluation 2.1; Software Handbook. 1995; Pharmacia Biosensor AB).

[2] = biological target: T1, extracellular domain of activin …; experiment: BIAcore SPR, biotinylated ActRIIBecd on chip; SD ±16.41 nM
Procedure: as §1

[3] = biological target: T1, extracellular domain of activin …; experiment: BIAcore SPR as Example 5 (method not restated); SD ±1.72 nM
Procedure: as §1

[4] = biological target: T1, extracellular domain of activin …; experiment: Mean KD column of Table 5; method not restated (BIAcore as Example 5); species also listed in Table 4
Procedure: Biosensor experiments. In one embodiment, experiments were performed on a BIAcore™ T100/T200 instrument (Pharmacia Biosensor AB) in the multichannel mode (serial flow path involving flow cells 1+2+3+4). Flow rate was 10 μl/min; temperature was 25° C.; and data were recorded at 2.5 points/s. All four segments of a sensor chip CMS were coated with streptavidin (Sigma) to a density of 2000 pg/mm² (2000 resonance units) by the aminocoupling procedure. ActRIIBecd (10 mg) and amine-PEG3-Biotin (10 mg, Pierce, Rockford, Ill.) were dissolved in 200 μl H₂O and 10 mg NaCNBH₃ was added to prepare biotinylated ActRIIBecd. The reaction mixture was heated at 70° C. for 24 h, after that a further 10 mg NaCNBH₃ was added and the reaction was heated at 70° C. for another 24 h. After cooling to room temperature, the mixture was desalted with the spin column (3,000 molecular weight cut off (MWCO)). Biotinylated ActRIIBecd was collected, freeze-dried and used for streptavidin (SA) chip preparation. Amino-biotinylated ActRIIBecd was then immobilized independently on flow cells 2-4 for 10 minutes at a flow rate of 5 μL/min and a concentration of 20 μM in 10 mM sodium acetate, pH 4.0, at a density of 50-250 resonance units (RU). The stored polypeptides were dissolved in glycine buffer (2.5 g of glycine, 0.5 g of sucrose, 370 mg of L-glutamate, 10 mg of sodium chloride, and 10 mg of Tween 80 in 100 mL water, pH 4.5) to prepare 10 mg/mL solution and then diluted with previous glycine buffer to prepare analytes with various concentration. Sensograms were recorded during flow of the analyte (the ActRIIBecd-associated polypeptides (i.e., domains) as previously described) first through flow cell 1 (control) then through flow cell 2 (biotinylated ActRIIBecd). The sensogram obtained for flow cell 1 was subtracted from the sensogram obtained for flow cell 2. The sensograms obtained at 1.11, 3.33, 10, 30, and 90 nM analyte were evaluated for equilibrium binding, association rate, and dissociation rate by using the programs supplied with the instrument (BIA evaluation 2.1; Software Handbook. 1995; Pharmacia Biosensor AB).

[5] = biological target: T1, extracellular domain of activin …; experiment: BIAcore SPR as Example 5 (method not restated); SD ±1.35 nM
Procedure: as §1

[6] = biological target: T1, extracellular domain of activin …; experiment: BIAcore SPR as Example 5 (method not restated); SD ±1.07 nM
Procedure: as §1

[7] = biological target: T1, extracellular domain of activin …; experiment: BIAcore SPR as Example 5 (method not restated); SD ±1.77 nM
Procedure: as §1

[8] = biological target: T1, extracellular domain of activin …; experiment: BIAcore SPR as Example 5 (method not restated); SD ±2.10 nM
Procedure: as §1

[9] = biological target: T1, extracellular domain of activin …; experiment: BIAcore SPR as Example 5 (method not restated); SD ±2.45 nM
Procedure: as §1

B1: Clone No. 27 domain (ActRIIBecd-associated polypeptide) (peptide)
chain: TYPASPKPMRWKMRSCACCAGGLRNRTGTV
Kd [1]: 49.3 nM

B2: Clone No. 30 domain (ActRIIBecd-associated polypeptide) (peptide)
chain: TALDGTRGAQGSGGGGGGGGGGGGGGGGGGGGAGRGHGRRGRSRCSRKSLHVDFKELG
Kd [2]: 61.7 nM

B3: SEQ ID NO: 188, cysteine pairs C44-C48^a (designed binder)
chain: AQAKHKQRKRLKSSCKRHPLYVDFSDVGWNDWIVAPPGYHAFYCHGECPFPLADHLNSTNHAIVQTLVNSV
modifications: disulfides C44-C48 (intra)
Kd [3]: 21.5 nM
Kd [4]: 21.5 nM

B4: SEQ ID NO: 260, cysteine pairs C79-C80^a (designed binder)
chain: AQAKHKQRKRLKSSCKRHPLYVDFSDVGWNDWIVAPPGYHAFYCHGECPFPLADHLNSTNHAIVQTLVNSVNSKIPKACCVPTELSAISMLYLDENEKVVLKNYQDMVVEGCGCR
modifications: disulfides C79-C80 (intra)
Kd [5]: 29.1 nM
Kd [4]: 29.1 nM

B5: SEQ ID NO: 260, cysteine pairs C80-C114^a, C79-C112^a, C44-C48^a (designed binder)
chain: AQAKHKQRKRLKSSCKRHPLYVDFSDVGWNDWIVAPPGYHAFYCHGECPFPLADHLNSTNHAIVQTLVNSVNSKIPKACCVPTELSAISMLYLDENEKVVLKNYQDMVVEGCGCR
modifications: disulfides C80-C114 (intra), C79-C112 (intra), C44-C48 (intra)
Kd [6]: 8.31 nM
Kd [4]: 8.31 nM

B10: SEQ ID NO: 268, cysteine pairs C23-C27^a, C65-C65^b, C79-C114^b, C80-C112^b (designed binder)
chain: VDFSDVGWNDWIVAPPGYHAFYCHGECPFPLADHLNSTNHAIVQTLVNSVAQAKHKQRKRLKSSCKRHPLYNSKIPKACCVPTELSAISMLYLDENEKVVLKNYQDMVVEGCGCR
modifications: disulfides C23-C27 (intra), C65-C65 (inter), C79-C114 (inter), C80-C112 (inter)
notes: homodimer by intermolecular disulfide
Kd [9]: 8.03 nM
Kd [4]: 8.03 nM

Continued, values first:

Kd [7]: 9.11 nM
Kd [4]: 9.11 nM
B6: SEQ ID NO: 324, cysteine pairs C15-C15^b, C80-C114^b, C79-C112^b, C44-C48^a (designed binder)
chain: AQAKHKQRKRLKSSCKRHPLYVDFKDVGWNDHAVAPPGYHAFYCHGECPFPLADHLNSDNHAIVQTKVNSVNSKIPKACCVPTELSAISMLYLDENEKVVLKNYQDMVVEGCGCR
modifications: disulfides C15-C15 (inter), C80-C114 (inter), C79-C112 (inter), C44-C48 (intra)
notes: as for B10

Kd [8]: 29.3 nM
Kd [4]: 29.3 nM
B7: SEQ ID NO: 324, cysteine pairs C79-C80^a (designed binder)
chain: AQAKHKQRKRLKSSCKRHPLYVDFKDVGWNDHAVAPPGYHAFYCHGECPFPLADHLNSDNHAIVQTKVNSVNSKIPKACCVPTELSAISMLYLDENEKVVLKNYQDMVVEGCGCR
modifications: disulfides C79-C80 (intra)

Kd [9]: 32.7 nM
Kd [4]: 32.7 nM
B8: SEQ ID NO: 300, cysteine pairs C23-C79^a (designed binder)
chain: VDFKDVGWNDHAVAPPGYHAFYCHGECPFPLADHLNSDNHAIVQTKVNSVGQAKRKGYKRLKSSCKRHPLYNSKDPKACCVPTELSAPSPLYLDENEKPVLKNYQDMVVHGCGCR
modifications: disulfides C23-C79 (intra)

Kd [3]: 6.44 nM
Kd [4]: 6.44 nM
B9: SEQ ID NO: 300, cysteine pairs C23-C27^a, C65-C65^b, C79-C112^b, C80-C114^b (designed binder)
chain: VDFKDVGWNDHAVAPPGYHAFYCHGECPFPLADHLNSDNHAIVQTKVNSVGQAKRKGYKRLKSSCKRHPLYNSKDPKACCVPTELSAPSPLYLDENEKPVLKNYQDMVVHGCGCR
modifications: disulfides C23-C27 (intra), C65-C65 (inter), C79-C112 (inter), C80-C114 (inter)
notes: as for B10
